Amyloid nucleation score data for 130 substances are collected here from the supplement of paper PMC12042874.

± gives the uncertainty stated by the source.

This series can be described thus: amyloid nucleation score (Sup35N fusion, yeast selection) (log enrichment); library NNK3; higher = more nucleation; inactive = no reads after selection. The method in brief:
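Sup35N was fused to peptides of 20 random codons and expressed in psi-negative yeast, which were induced with 100 μM copper sulfate for 24 hours and then grown on medium lacking adenine and uracil for 7 days at 30°C. Plasmid inserts from input and output were sequenced on Illumina. The nucleation score is the DiMSum log enrichment of output over input reads, centred on the mode score of non-aggregating sequences. Sequences with under 100 input reads were left out, and random libraries had three technical output replicates.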
DIHVKNCVVCMYSG had an amyloid nucleation score of 2.44 ± 0.057.
With SWWFCVWFQNI the figure was 0.888 ± 0.13; with GDNICQNVFTDGKVDAFFLT, “inactive”.
In the case of YWDDSMKYDLKMVERSVGGK, the amyloid nucleation score result was “inactive”.
On to VVTEVSSLSSTGGSFVWLCR, for which the amyloid nucleation score entry was “inactive”.
With MNFVPTLRSIVVGRWRDLEV the entry was “inactive”; with ERVKWDKRMHPVDHWHVTVS, “inactive”.
Next, FAISSILSMDAPGLDQIDRF: “inactive”.
With SFRSNVGFEVFLIATELRFC the entry was “inactive”.
As for DPSNACPWGR, the amyloid nucleation score entry is “inactive”.
Turning to YSHWMVRAA, the amyloid nucleation score is -0.145 ± 0.81.
With ARVKWMVGEIWCQSDDKPLE, the amyloid nucleation score result is “inactive”.
Regarding IQNIVRLDSVVSMVFGRLVI, the amyloid nucleation score result is “inactive”.
With GSRCSASPKNSESGRGKYFG the entry was “inactive”.
For PKALVFNLEDDLQGIWSVT, the amyloid nucleation score turned out to be 2.1 ± 0.079.
With VEKCSVCLPTFEGWPLSKRF the entry was “inactive”; with RASKRLCWSG, “inactive”.
With DYTMVKLLIGLSGIRTPVVR, the amyloid nucleation score entry was “inactive”.
Next, RRFRSLKRPAQNLSDALMSG: “inactive”; ITILT: “inactive”.
Next, LCDGCKNMFLLPLY: “inactive”; LLIRVLYLWSLESISNG: “inactive”.
Regarding LWHSYFSFYLCVTFENRVIN, the amyloid nucleation score came out at 2.79 ± 0.052.
Next, YVRDLGSWMT: “inactive”; WRVLKADDYFFFWWASCFAY: “inactive”; KYTNTACLSRASIGNMIGQF: “inactive”.
Next, LLYVICPVRINLRHWRATDS: 0.487 ± 0.17.
On to CMSTKTNFT, for which the amyloid nucleation score entry was “inactive”.
Next, SYCTYCRKAVGCHVHDEVGG: “inactive”; YEQHSY: “inactive”; CDHYRISWNLKWLVVRMYY: “inactive”.
With NNFTVAWFYRHGSLSISFGY the entry was “inactive”; with DEMLHGCPDRVPNLGWY, “inactive”; with HWIISYQAGCFHLNTFKIMY, “inactive”.
With ILFRYFISGMVVWGDNMENE the entry was “inactive”; with RGRMLDHGSS, “inactive”.
Consider IRLVPWFW, for which the amyloid nucleation score result was “inactive”.
With RSLYMLVNLMYCGTEVRFIC, the amyloid nucleation score entry was “inactive”.
Take YLLHK: the amyloid nucleation score result is “inactive”.
Next, SDFSVRVLDNWIHNMTGRIG: “inactive”; SYFVALMSLRYMESTYWR: “inactive”; DGVALFNVVRFVVGIDILLI: “inactive”.
Next, STWLSNWYY: -0.759 ± 1.1.
Take RGVFLTEEASFIGELSLCSA: the amyloid nucleation score result was “inactive”.
Next, VITMGMSLSSVSGLRDYLQE: 1.36 ± 0.12; VICGYLYVYVYHGFVGSLLG: “inactive”.
Next, CSLYNLDRVTWTG: 0.219 ± 0.41; RSVVLIPDLFGNL: “inactive”; VSRKMRLVWTRLVER: “inactive”.
Next, SSNFVFNLPSTWWSYYMTWV: -0.216 ± 0.75.
Turning to CLFYIRS, the amyloid nucleation score entry was “inactive”.
With WQLAGYWLEWSIRPEGALDD the entry was “inactive”; with TSGGQRAAVWIYFTNEVMKY, 0.207 ± 0.34.
Next, KWIVQAILSSEL: “inactive”; LNYVLS: “inactive”; LCPVMLDRRSARSKGPALIL: “inactive”.
On to FTPARRLSRLIVFCFG, for which the amyloid nucleation score entry was “inactive”.
In the case of RGQGKHNSRYFCLIT, the amyloid nucleation score result was “inactive”.
With YLHAEYRMCKLIFKMEEFRD the figure was 0.276 ± 0.46; with MVKSKSTLTCNSIEPCIVIF, “inactive”.
In the case of SWLKVCRQGYGDSSIRYRLL, the amyloid nucleation score result was “inactive”.
For GNIFRRYTVPSDANTKTWIY, the amyloid nucleation score result was “inactive”.
With NRKNTKHLIFFYVFVT the entry was “inactive”; with FGMSILVFFTVDRSLET, “inactive”.
With DSADVMIAYASVVVVTIECC the entry was “inactive”; with CIAMGTISFQFPVLMRYYLC, “inactive”; with QSASHRP, “inactive”.
For the substance EMAEAGTFEGYSLSVSVSAD, the amyloid nucleation score entry is “inactive”.
Next, VNCLLSRWCGRHA: “inactive”.
For the substance NDIITLSQTLVELSPFGWLS, the amyloid nucleation score result is “inactive”.
For the substance FAGDLRDCWFLSFV, the amyloid nucleation score result was “inactive”.
With SIVRIFIIN the figure was 2.27 ± 0.056.
Next, TRFGRSANWLFFSAPTGRQN: “inactive”; VQRGSTALVFDVSTSIFMNI: 1.57 ± 0.12; IRLSQNWGSYVCSNTLNSER: “inactive”.
With CKCYYGTSDFCGVGFETASR the entry was “inactive”.
With NAVRLVGSPAVVVSTMGHN, the amyloid nucleation score entry is “inactive”.
For the substance FMGDRLKEAGDRTLYDQKVG, the amyloid nucleation score result was “inactive”.
For the substance ASACPRLWVRLCLGCVIPKE, the amyloid nucleation score entry was “inactive”.
On to ALLCRMGRVRWPVSHEGNVC, for which the amyloid nucleation score entry is “inactive”.
Next, ERQVYMVLGSICRKPTMERS: -1.05 ± 1.9; QRVWRMMQNLSRW: “inactive”; HPHTHVR: “inactive”.
Next, SLSLWESRCQITFPLVIKVE: -0.017 ± 0.7; SVLMA: “inactive”; LYDVGYKGQMVDGGTVCCER: -0.257 ± 0.8.
Next, NSDATIWYFHRCSRLYVAGM: “inactive”; RLCWLNVDHGLLVNPPWGYR: “inactive”.
On to LAAMWPFV, for which the amyloid nucleation score entry is “inactive”.
With DSSMIDRAENAH the entry was “inactive”; with PLVYLGSLSGDQHWLYFSKE, “inactive”; with RIFFKVCNVRLSVADFSHYV, 1.99 ± 0.051.
With ESSRRYEVCCLMW the entry was “inactive”.
In turn, ARIPEMLWFWVGTRKRGFII came in with an amyloid nucleation score of 1.74 ± 0.11.
Regarding SNMIRVRWRVAFRGWMARCL, the amyloid nucleation score entry was “inactive”.
In the case of KARWYFIVLNVVTHSWDSKV, the amyloid nucleation score result was “inactive”.
As for NTPRRLHSYLFSTLWY, the amyloid nucleation score entry is “inactive”.
As for YMMGKISSPGNLMTMFAVDG, the amyloid nucleation score entry was “inactive”.
In the case of FMKCDTTSAAGCRRSSSRDK, the amyloid nucleation score entry is “inactive”.
In turn, FTYVLTLMSFNGGPRGRYGW returned an amyloid nucleation score of 2.66 ± 0.068.
With SEDDC the entry was “inactive”; with LYTNGIFYWQMGYLKVWQGI, “inactive”.
Turning to FVRGTVWKSTGDVMDAVPAT, the amyloid nucleation score entry is “inactive”.
Consider VYLHIVHCMGYVNDQGRNRS, for which the amyloid nucleation score result is “inactive”.
Next, LLFALDGFIAGWMCMWGDRF: “inactive”; IAAPRGMTDSRVVMRCLHVN: “inactive”; DLRCHGYC: “inactive”.
With LYESNVRCNRVVTSLFVSSQ the entry was “inactive”; with TYLIWLGHRAHPMSLLHSFA, “inactive”.
As to FVGYINILLIADSALGVRIL, the amyloid nucleation score turned out to be 1.64 ± 0.076.
With KMSNGDTNDANVFIVRDSWL the entry was “inactive”.
Next, ANLIYPRLEFCISMCTQMAE: “inactive”; HGSAWHSISEVVTIIRACGF: “inactive”.
With CKLCTFSKRLNLTFRMVASL the entry was “inactive”; with YYLSFVKKCNDSEVIWTKSV, “inactive”.
Take SSHVQRMMRLMVAN: the amyloid nucleation score entry is “inactive”.
For NVMDCSYITNVNIYSHHWDY, the amyloid nucleation score was 2.1 ± 0.055.
Next, FACFAVIILHVIMYVRMSSV: “inactive”; LFRLYKYLQCPSQGWCPRH: “inactive”.
With PMERGMCLMLGSLVG the figure was 0.942 ± 0.093.
Next, GHCKCGPVGPNKRTAR: “inactive”.
Consider FSNSSGNGEGDLRENLQNKM, for which the amyloid nucleation score entry was “inactive”.
With CVFPCMFLEFTMTDMKLYSS the entry was “inactive”; with YCFICVDSIAL, 2.27 ± 0.072.
Next, VFVVQNGMPTRFECVLGVQR: “inactive”; MPGAALLVVLFSGFVYREAM: “inactive”.
Next, SCGLFRLNMDIRVSNKNFWG: 0.991 ± 0.12; FRFSMSL: “inactive”.
Regarding SMCNTSLYWLDHGADLLRSL, the amyloid nucleation score entry is “inactive”.
With SKCSVGVLTRFR the entry was “inactive”.
